{
  "source": "patent US20140343256A1",
  "about": "(TECHNISCHE UNIVERSITAT MUNCHEN, published 2014)",
  "key": {"[1]": {"target": "recombinant TLR2ECD-Fc fusion protein (human IgGFc fused mouse TLR2ECD protein) (murine; human) (UniProt Q9QUN7)", "sequence (Q9QUN7 25-587 limits assumed, form in doubt)": "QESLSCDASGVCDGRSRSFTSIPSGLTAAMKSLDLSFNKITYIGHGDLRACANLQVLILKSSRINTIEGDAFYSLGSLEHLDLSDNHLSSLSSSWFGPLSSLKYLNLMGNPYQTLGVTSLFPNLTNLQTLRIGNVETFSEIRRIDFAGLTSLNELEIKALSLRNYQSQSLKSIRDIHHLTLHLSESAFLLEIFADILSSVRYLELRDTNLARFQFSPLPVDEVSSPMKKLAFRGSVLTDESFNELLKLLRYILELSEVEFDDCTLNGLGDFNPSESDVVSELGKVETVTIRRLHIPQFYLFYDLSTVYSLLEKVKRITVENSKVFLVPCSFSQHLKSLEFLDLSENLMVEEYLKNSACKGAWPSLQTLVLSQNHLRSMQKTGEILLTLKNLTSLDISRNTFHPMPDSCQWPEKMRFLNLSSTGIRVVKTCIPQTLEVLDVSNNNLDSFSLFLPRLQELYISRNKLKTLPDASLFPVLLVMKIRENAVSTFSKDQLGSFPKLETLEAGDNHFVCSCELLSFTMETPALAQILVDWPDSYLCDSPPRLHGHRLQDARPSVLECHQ", "assay": "SPR competition: T2EC pre-incubated with T2.5, binding to immobilised P3CSK4"}, "[2]": {"target": "T1, N-palmitoyl-S-(2,3-bis(palmitoyloxy)-(2R,S)-propyl)-(R)-cysteinyl-seryl-(lysyl)-3-lysine", "T1 construct": "Synthetic bacterial lipopeptide analogue and TLR2 agonist, immobilised on the SPR chip; also called P3CSK4; tripalmitoyl-cysteinyl-seryl-(lysyl)3-lysine", "T1 peptide": "Palmitoyl-C(2,3‑bis(palmitoyloxy)‑(2R,S)‑propyl)SKKKK", "assay": "SPR, antibody alone over immobilised P3CSK4"}},
  "note": "Ends that are not written are not given here. * marks the point of attachment. Palmitoyl = CCCCCCCCCCCCCCCC(=O)*",
  "data": [
    {"binder": "murine monoclonal antibody T2.5 (antibody, V domains shown, also called mAb T2.5; native T2.5) VH: QVQLQQSGPELVNPGASVKLSCKASGFTFTTYGINWVKQGPGQGLEWIGWIYPRDGSTNFNENFKDKAALTVDTSSSTAYMELHSLTSEDSAVYFCARLTGGTFLDYWGQGTTLTVSS VL: DIVLTQSPASLAVSLGQRATISCRASESVEYYGTSLMQWYQQKPGQPPKLLIFGASNVESGVPVRFSGSGSGTDFSLNIHPVEEDDIVMYFCQQSRKLPWTFGGGTKLEIKR", "values": [
      {"measurement": "molar excess of T2.5 over T2EC that abrogated the T2EC-P3CSK4 interaction (fold molar excess)", "setting": "[1]", "value": 10},
      {"measurement": "molar ratio (T2.5:T2ECD) required to reduce binding to 50% (molar ratio (T2.5:T2ECD))", "setting": "[1]", "value": 3.3},
      {"measurement": "binding result", "setting": "[2]", "value": "no binding"}
    ]}
  ]
}
